The record followed here is patent publication US20100028342A1.

pEC50, pIC50, pKd: −log10 of the molar value.

For experiment [1], the target named is recombinant extracellular portion of human IGF-IR (soluble IGF-IR) (human) (UniProt P08069). Put plainly: competition: cold IGF-II against radiolabeled IGF-I on immobilized IGF-IR; cold IGF-II as competitor.
Experiment [2] shares this target. Put plainly: human IGF-IR binding ELISA, repeated with the same sample of A12. A general note: ELISA stands for enzyme-linked immunosorbent assay.
The target is the same in experiment [3]. Put plainly: ratio of plate binding: ED50 on human IGF-IR against the highest concentration tested on IR.
The target is the same in experiment [4]. Put plainly: ligand blocking of IGF-I binding to IGF-IR, column Blocking (EC50).
The target is the same in experiment [5]. Put plainly: human IGF-IR-based ELISA, column Binding (ED50).
For experiment [6] the target is unchanged. Put plainly: BIAcore 3000, soluble IGF-IR immobilized on the sensor chip, full IgG in solution. A general note: Surface plasmon resonance follows binding to a sensor surface in real time, without labels.
Experiment [7] shares this target. Put plainly: competition: blocking of radiolabeled IGF-I binding to immobilized IGF-IR.

Sequence of antibody A12 (fully human IgG1 anti-IGF-IR antibody) (VH): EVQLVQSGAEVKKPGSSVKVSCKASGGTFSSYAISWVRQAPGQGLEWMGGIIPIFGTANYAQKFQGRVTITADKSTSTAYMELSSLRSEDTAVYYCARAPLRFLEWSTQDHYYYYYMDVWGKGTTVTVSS
Sequence of antibody A12 (fully human IgG1 anti-IGF-IR antibody) (VL): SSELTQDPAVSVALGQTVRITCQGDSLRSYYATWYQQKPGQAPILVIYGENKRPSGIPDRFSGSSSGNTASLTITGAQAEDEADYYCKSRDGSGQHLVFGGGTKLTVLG

Consider “IGF-II (from UniProt P01344 25-91) (ligand)”, for which the pIC50 (as a rule, the IC50 on a negative log10 scale, so that one unit is a factor of ten) in experiment [1] is 8.22.

On to “antibody A12 (fully human IgG1 anti-IGF-IR antibody)”, for which the pEC50 (commonly the negative decadic logarithm of the EC50, by convention in mol/L) in experiment [2] is 9.30 to 9.52. Moreover, the selectivity for IGF-IR in comparison to IR in experiment [3] was greater than 3000 fold. In addition, in experiment [4], the pEC50 was 9.00 to 9.22. Also, in experiment [5], the pEC50 was 9.52. Moreover, in experiment [6], the pKd (commonly the negative decadic logarithm of the Kd, by convention in mol/L) was 10.39; the koff (as a rule, the first-order rate constant of dissociation) was 3e-05 s⁻¹; the kon (commonly the rate constant with which the complex forms) came to 720000 M⁻¹ s⁻¹. In experiment [7], the pIC50 was 9.00.
